# Assay results as given in patent US20210214454A1 (SYMPHOGEN A S, published 2021).
# Positions count from the first letter of the chain named.
# B1: antibody 17303 (antibody, human IgG1, kappa, L234A L235A, V domains shown)
# VH: EVQLVESGGGLVQPGRSLRLSCAASGFTFDDHAMHWVRQAPGKGLEWVSGISWNSGSIGYAESVKGRFTISRDNAKNSLYLQMNSLRAEDTALYYCAKDRRGPFDYWGQGTLVTVSS
# VL: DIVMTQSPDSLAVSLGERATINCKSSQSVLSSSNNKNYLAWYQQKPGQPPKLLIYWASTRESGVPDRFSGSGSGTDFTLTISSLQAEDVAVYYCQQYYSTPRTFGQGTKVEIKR
# notes: Fully human IgG1-LALA / kappa
# B2: antibody 15948 (antibody, human IgG1, kappa, L234A L235A, V domains shown)
# VH: QVQLVESGGGVVQPGRSLRLSCAASGFTFSIYGMHWVRQAPGKGLEWVAVISYDGSNKYYADSVKGRFTISRDNSKNTLYLQMNSLRAEDTAVYYCAKDPDYYGSGSYYPDWGQGTLVTVSS
# VL: DIQLTQSPSFLSASVGDRVTITCRASQGISSYLAWYQQKPGKAPKLLIYAASTLQSGVPSRFSGSGSGTEFTLTISSLQPEDFATYYCQQVKSYPLTFGGGTKVEIKR
# notes: Fully human IgG1-LALA / kappa
# B3: antibody 16040 (antibody, human IgG1, kappa, L234A L235A, V domains shown)
# VH: QVQLVESGGGVVQPGRSLRLSCAASGFTFSIYGMHWVRQAPGKGLEWVAVISYDGSNKYYADSVKGRFTISRDNSKNTLYLQMNSLRAEDTAVYYCAAGNWFDPWGQGTLVTVSS
# VL: B2 VL with V91L, K92N, S93R
# notes: Fully human IgG1-LALA / kappa
# B4: antibody 15833 (antibody, human IgG1, kappa, L234A L235A, V domains shown)
# VH: QVQLVESGGGVVQPGRSLRLSCAASGFTFSNYAMHWVRQAPGKGLEWVALISFDGSYKYYADSVKGRFTISRDNSKNTLYLQMNSLRAEDTAVYYCVKDAGYSSSWFFDYWGQGTLVTVSS
# VL: DIQMTQSPSSVSASVGDRVTITCRASQDISSWLAWYQQKPGKAPKLLIYAASSLQSGVPSRFSGSGSGTDFTLTISSLQPEDFGNYYCQQANSFPWTFGQGTKVEIKR
# notes: Fully human IgG1-LALA / kappa
# B5: antibody 15888 (antibody, human IgG1, kappa, L234A L235A, V domains shown)
# VH: QVQLQQSGPGLVKPSQTLSLTCAISGDSVSSNSATWNWIRQSPSRGLEWLGRTYYRSKWYNDYAVSVKSRITINPDTSKNQFSLQLNSVTPEDTAVYYCARGGHSIAVAGPFDYWGQGTLVTVSS
# VL: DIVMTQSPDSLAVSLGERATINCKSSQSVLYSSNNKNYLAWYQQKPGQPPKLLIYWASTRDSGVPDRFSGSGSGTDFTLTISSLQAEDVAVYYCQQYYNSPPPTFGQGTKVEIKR
# notes: Fully human IgG1-LALA / kappa
# B6: antibody 16154 (antibody, human IgG1, kappa, L234A L235A, V domains shown)
# VH: EVQLVESGGGLVQPGGSLRLSCAASGFTFTSYWMSWVRQAPGKGLEWVANIKQDGSEKYYVDSVKGRFTISRDNAKNSLYLQMNSLRAEDTAVYYCARGPVAGPYWYFDLWGRGTLVTVSS
# VL: AIQMTQSPSSLSASVGDRVTITCRASQGIRNDLGWYQQKPGKAPKLLIYAASSLQSGVPSRFSGSGSGTDFTLTISSLQPEDFATYYCLQDYHYPLTFGGGTKVEIKR
# notes: Fully human IgG1-LALA / kappa
# Target: T1, cynomolgus CD40 extracellular domain (ECD) (cynomolgus)
# T1 construct: extracellular domain; also called Cynomolgus CD40 ECD
# Experiment: SPR (IBIS MX96), antibody captured, monovalent CD40 ECD in solution
Kd,koff,kon,Binder
9.8 nM,0.0014 s⁻¹,150000 M⁻¹ s⁻¹,B1
57 nM,0.0021 s⁻¹,37000 M⁻¹ s⁻¹,B2
16 nM,0.0013 s⁻¹,81000 M⁻¹ s⁻¹,B3
1.5 nM,0.00012 s⁻¹,80000 M⁻¹ s⁻¹,B4
0.44 nM,0.00014 s⁻¹,330000 M⁻¹ s⁻¹,B5
4.6 nM,0.00051 s⁻¹,110000 M⁻¹ s⁻¹,B6

# Target: T2, His-tagged human CD40 extracellular domain (ECD) (human, UniProt P25942 21-193)
# T2 construct: Bought from Sino Biological; also called human CD40 ECD; CD40-his ECD antigen; not shown: His tag
# T2 sequence (P25942 21-193): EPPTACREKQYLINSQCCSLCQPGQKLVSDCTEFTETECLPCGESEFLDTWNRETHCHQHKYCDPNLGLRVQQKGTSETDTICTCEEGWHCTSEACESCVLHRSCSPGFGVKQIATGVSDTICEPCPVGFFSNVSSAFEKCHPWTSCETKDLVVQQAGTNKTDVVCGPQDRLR
# Experiment: as above
Kd,koff,kon,Binder
7.8 nM,0.00038 s⁻¹,49000 M⁻¹ s⁻¹,B1
3.1 nM,0.00031 s⁻¹,99000 M⁻¹ s⁻¹,B2
7 nM,0.00036 s⁻¹,52000 M⁻¹ s⁻¹,B3
2.8 nM,0.00012 s⁻¹,41000 M⁻¹ s⁻¹,B4
0.75 nM,0.00014 s⁻¹,190000 M⁻¹ s⁻¹,B5
5.7 nM,0.00031 s⁻¹,53000 M⁻¹ s⁻¹,B6

# Target: T3, human CD40 protein expressed on cells (human, UniProt P25942 21-277)
# T3 construct: also called human CD40 on CHO-S cells; CD40 of CD40-NFkB-luciferase reporter cells (Promega CD40 Bioassay kit)
# T3 sequence (P25942 21-277 limits assumed): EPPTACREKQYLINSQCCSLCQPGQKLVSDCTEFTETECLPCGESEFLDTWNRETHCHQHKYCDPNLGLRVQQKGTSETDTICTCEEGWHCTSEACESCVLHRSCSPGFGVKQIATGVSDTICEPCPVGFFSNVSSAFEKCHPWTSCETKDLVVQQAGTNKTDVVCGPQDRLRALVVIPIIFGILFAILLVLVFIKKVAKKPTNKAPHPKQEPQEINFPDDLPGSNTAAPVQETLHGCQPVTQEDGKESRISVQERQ
# Experiment: flow cytometry on CHO-S cells transiently expressing human CD40; AF647 anti-human IgG (H+L) secondary; GeoMean RL1-H
# Procedure: (§1) The anti-CD40 antibodies were incubated with hamster CHO-S cells transiently expressing human or cynomolgus CD40 for 30 minutes at 4° C. The cells were washed twice and subsequently incubated for an additional 20 minutes with AF647-conjugated secondary anti-human IgG (H+L) antibody. After the washing step, antibody binding was detected using the high-throughput flow cytometer iQue Screener PLUS (Sartorius) measuring the GeoMean of AF647 signal in each well. Every concentration was assayed in triplicate and a 12-point titration curve was generated for each antibody.
row,EC50 (read off the curve),Binder
1,~0.1 µg/mL,B4
2,~0.008 µg/mL,B6

# Target: T4, cynomolgus CD40 protein expressed on CHO-S cells (cynomolgus, UniProt G7PG38 21-278)
# T4 construct: whole, on cells
# Experiment: flow cytometry on CHO-S cells transiently expressing cynomolgus CD40; AF647 anti-human IgG (H+L) secondary; GeoMean RL1-H
# Procedure: as §1
row,EC50 (read off the curve),Binder
1,~0.02 µg/mL,B1
2,~0.4 µg/mL,B2
3,~0.2 µg/mL,B4
4,~0.02 µg/mL,B5
5,~0.008 µg/mL,B6
